According to the supplement of paper PMC10567573:

B1: LOC100129726 (parent)
chain: VHTGCHKKLGPEARRPRTRWGKN

Variants of: B1
Assay: protein stability index of a GFP-peptide fusion (GPS, HEK-293T) (PSI 1-6); higher = more stable
Conditions: c terminus: native
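Note: lentivirally expressed fusions sorted by FACS into six bins by GFP to DsRed ratio, PSI derived from sequencing read proportions per bin multiplied by bin number.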

Variant | protein stability index
VHTGCHKKLGPEARPPRTRWGKN | 2.75
VHTGCHKKLGPEARNPRTRWGKN | 2.42
VHTGCHKKLGPEARQPRTRWGKN | 1.75
VHTGCHKKLGPEARGPRTRWGKN | 3.43
VHTGCHKKLGPEARVPRTRWGKN | 1.34
VHTGCHKKLGPEARHPRTRWGKN | 2.44
VHTGCHKLLGPEARRPRTRWGKN | 2.63
VHTGCHKQLGPEARRPRTRWGKN | 2.41
VHTGCHKKLGPEARRPRTRWGIN | 4.11
VHFGCHKKLGPEARRPRTRWGKN | 1.95
VHPGCHKKLGPEARRPRTRWGKN | 1.67
VHTGCHKKLHPEARRPRTRWGKN | 1.74
VHTGCHKKLWPEARRPRTRWGKN | 2.17
VHTGCHKKLGPEARRPRTRWGKD | 2.78
VHTGCHKKLGPEARRPRTRWGKI | 1.3
VHTGCHKKLGPEARRPRTRWGKP | 2.62
VHTGCHKKLGPEARRPRTRWGKQ | 1.63
VHTGCHKKLGPRARRPRTRWGKN | 3.79
VHTGCHKKLGPHARRPRTRWGKN | 2.21
VHTGCHKKLGPTARRPRTRWGKN | 1.42
VHTGCHKKLGPLARRPRTRWGKN | 2.17
VHTGCHKKLGPCARRPRTRWGKN | 3.61
VHTGCHKKLGPQARRPRTRWGKN | 1.75
VHTGCHKKLGPMARRPRTRWGKN | 1.47
VHTGCHKKLGPEARRPATRWGKN | 2.5

Variant | protein stability index
VHTGCHKKLGPEARRPNTRWGKN | 3.66
VHTGCHKKLGPEARRPWTRWGKN | 1.66
VHTGCHKKLGPEARRPDTRWGKN | 4.38
VHTGCHKKLGPEARRPYTRWGKN | 2.15
VHTGCHKKLGPEARRPKTRWGKN | 1.36
VHTVCHKKLGPEARRPRTRWGKN | 2.14
VHTDCHKKLGPEARRPRTRWGKN | 2.33
VHTICHKKLGPEARRPRTRWGKN | 2.66
VHTLCHKKLGPEARRPRTRWGKN | 2.91
VHTCCHKKLGPEARRPRTRWGKN | 2.51
VHTKCHKKLGPEARRPRTRWGKN | 2.71
VHTMCHKKLGPEARRPRTRWGKN | 2.44
VHTRCHKKLGPEARRPRTRWGKN | 2.47
VHTECHKKLGPEARRPRTRWGKN | 3.67
VHTGCHMKLGPEARRPRTRWGKN | 4.17
VHTGCHKKLGPEARRPRHRWGKN | 1.7
VHTGCHKKLGPEARRPRARWGKN | 2.96
VHTGCHKKLGPEARRPRVRWGKN | 1.29
VHTGCHKKLGPEARRPRQRWGKN | 2.47
VHTGCHKKLGPEARRPRNRWGKN | 1.74
VHTGCHKKLGPEARRPRIRWGKN | 1.4
VHTGCHKKLGPEARRPRLRWGKN | 3.05
VHTGCHKKLGPEARRPRFRWGKN | 2.03
VHTGCHKKLGPEARRPRTRWQKN | 4.45
VHTGCHKKLGPEARRPRTRWTKN | 3.57

Variant | protein stability index
VHTGCHKKLGPEARRPRTRWMKN | 3.89
VHTGCHKKLGPEARRPRTRWCKN | 3.16
VHTGCHKKLGPEARRPRTRWAKN | 3.47
VHTGCHKKLGPEARRPRTRWDKN | 4
VHTGCHKKLGPEARRPRTRWFKN | 3.36
VDTGCHKKLGPEARRPRTRWGKN | 1.82
VLTGCHKKLGPEARRPRTRWGKN | 2.38
VVTGCHKKLGPEARRPRTRWGKN | 2.99
VMTGCHKKLGPEARRPRTRWGKN | 2.79
VHTGCHKKLGPESRRPRTRWGKN | 2.71
VHTGCHKKLGPERRRPRTRWGKN | 1.64
VHTGCHKKLGPEKRRPRTRWGKN | 1.11
VHTGCHKKLGPENRRPRTRWGKN | 1.94
VHTGCHKKLGPEAPRPRTRWGKN | 4.64
VHTGCHKKLGPEAMRPRTRWGKN | 3.01
VHTGCHKKLGPEAKRPRTRWGKN | 2.05
VHTGCHKKLGPEAIRPRTRWGKN | 3.23
VHTGCFKKLGPEARRPRTRWGKN | 1.81
VHTGCRKKLGPEARRPRTRWGKN | 2.85
VHTGCPKKLGPEARRPRTRWGKN | 1.77
VHTGCYKKLGPEARRPRTRWGKN | 2.62
VHTGGHKKLGPEARRPRTRWGKN | 2.34
VHTGYHKKLGPEARRPRTRWGKN | 1.98
VHTGEHKKLGPEARRPRTRWGKN | 2.57
VHTGCHKKLGPEARRSRTRWGKN | 1.46

Variant | protein stability index
VHTGCHKKLGPEARRHRTRWGKN | 1.39
VHTGCHKKNGPEARRPRTRWGKN | 2.8
VHTGCHKKPGPEARRPRTRWGKN | 2.92
VHTGCHKKCGPEARRPRTRWGKN | 2.4
VHTGCHKKRGPEARRPRTRWGKN | 2.64
VHTGCHKKLGAEARRPRTRWGKN | 2.24
VHTGCHKKLGFEARRPRTRWGKN | 2.47
VHTGCHKKLGPEARRPRTRLGKN | 4.36
VHTGCHKKLGPEARRPRTRPGKN | 2.01
VHTGCHKKLGPEARRPRTRRGKN | 4.73
VHTGCHKKLGPEARRPRTRYGKN | 2.26
VHTGCHKKLGPEARRPRTRVGKN | 3.67
VHTGCHKKLGPEARRPRTRQGKN | 3.66
VHTGCHKKLGPEARRPRTRKGKN | 5
VHTGCHKKLGPEARRPRTRCGKN | 2.99
VHTGCHKKLGPEARRPRTRNGKN | 4.45
VHTGCHKKLGPEARRPRTWWGKN | 2.67
VHTGCHKKLGPEARRPRTNWGKN | 2.5
VHTGCHKKLGPEARRPRTMWGKN | 2.41
VHTGCHKKLGPEARRPRTEWGKN | 3.77
SHTGCHKKLGPEARRPRTRWGKN | 1.99
RHTGCHKKLGPEARRPRTRWGKN | 2.02
